Experimental data from paper PMC3201875.

Experiments:
SBP-tagged LeishIF4E-1 = experiment: pull-down
SBP-tagged LeishIF4E-4 = experiment: pull-down

LeishIF4A-1 (natural protein)
percent of the total protein in the elution fraction (SBP-tagged LeishIF4E-1): 3% | percent of the total protein in the elution fraction (SBP-tagged LeishIF4E-4): 3.4%

LeishIF4G-3 (natural protein)
percent of the total protein in the elution fraction (SBP-tagged LeishIF4E-4): 9%

Leishmania 4E-Interacting Protein (Leish4E-IP) (natural protein)
percent of the total protein in the elution fraction (SBP-tagged LeishIF4E-1): 14%
